One molecule from patent US20210371520A1 (AGILENT TECHNOLOGIES, published 2021) can be followed below.

For this test, the target named is T1, human LAG-3 (Lymphocyte-Activation Gene 3) protein (human, UniProt P18627 23-525).
T1 construct: whole, on cells; Endogenous LAG-3 in normal and tumour tissue sections (IHC), not a recombinant protein; also called CD223
T1 sequence (looked up): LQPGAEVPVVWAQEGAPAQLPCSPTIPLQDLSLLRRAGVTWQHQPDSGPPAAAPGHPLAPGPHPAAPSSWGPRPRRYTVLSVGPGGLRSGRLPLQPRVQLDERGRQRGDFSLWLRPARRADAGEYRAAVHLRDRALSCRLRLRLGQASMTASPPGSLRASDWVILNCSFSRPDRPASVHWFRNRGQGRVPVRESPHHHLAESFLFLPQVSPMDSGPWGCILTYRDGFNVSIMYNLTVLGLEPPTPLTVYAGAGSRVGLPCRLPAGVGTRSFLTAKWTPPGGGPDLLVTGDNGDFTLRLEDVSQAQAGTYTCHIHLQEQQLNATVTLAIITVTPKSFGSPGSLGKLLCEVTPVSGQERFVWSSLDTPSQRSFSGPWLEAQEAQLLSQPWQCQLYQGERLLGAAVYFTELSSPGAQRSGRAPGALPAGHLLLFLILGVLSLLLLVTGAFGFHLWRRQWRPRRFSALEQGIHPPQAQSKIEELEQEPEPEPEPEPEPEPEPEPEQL
Briefly: double IHC staining on normal tonsil. The text has this: FIG. 9 illustrates tumor tissue samples of Lung Squamous cell Carcinoma (SQC) (FIG. 10) and kidney renal cell carcinoma (RCC) (FIG. 11); the double IHC staining method follows the protocol of Petersen, et al. 2018 [18] using the EnVision FLEX+™ system in a sequential manner, where the exemplary LAG-3 antibody, clone 12H8 (HRP DAB chromagen) constitutes the first layer followed by a sulfuric acid block step and adding an extra EnVision FLEX+™ staining layer on top with PD1 antibody, clone NAT105 (magenta chromogen)); and FIG. 9 illustrates that LAG-3 is co-localized with the PD1 T cell marker in a subpopulation of activated T cells in the germinal center of the tonsil. Other cells belonging to the activated T cell population is only stained by PD1. The B lymphocytes in the germinal center are negative for both the LAG-3 and the PD1 antibody, illustrating the specificity of both these antibodies: (Red arrow: strongly LAG-3 positive, DAB overshadows magenta PD1. Green arrow: weakly pos LAG-3 with both DAB membrane and DAB golgi and PD1 magenta stain visible). PD1 positive, LAG-3 negative T cells: (orange arrow).

B1: rabbit anti-human LAG-3 antibody, clone 12H8 (antibody, V domains shown)
VH: QSVKESEGGLFKPTDTLTLTCTVSGIDLSSGILVWVRQAPGSGLEWIGGIDANGRAYYASWAKSRSTITRNTNENTVTLKMTSLTAADTATYFCAGGAWNIWGPGTLVTVSS
VL: AQVLTQTPSPVSAAVGGTVTIKCQSSQSVYDSNTLAWFQQKPGQPPKLLMYSASTLAFGVPSRFSGSGSGTQFTLTISDLECADAATYYCLGSYDCSSVDCTAFGGGTEVVVK
notes: also called LAG-3 clone 12H8; exemplary LAG-3 antibody
B1: the binding result is recorded as “binds”.
